Laboratory results reported in the DeepSol protein solubility set.

Experiment: soluble on expression in E. coli; label from the status in PepcDB or PDB records

| Sequence | soluble on expression in E. coli |
| --- | --- |
| MGLIKAATSSVGGGLADQWLEVIEPDNMGDTTVMTKGVFVRKDDKRGSNRKGTDDVLTDGSVVHVYPNMMMLLVDGGKIIDYTAEEGYYTVKNDSAPSMFNGSLKDAIAETFSRFKFGGVTPQKQQVFYINLQEIKGIKFGTPAPLNYFDNFYNAELFLRAHGNYSIKITDPLLFYTNAIPKNQTQVDINDINEQYLAEFITALQAAINQMSADGQRISYVPSKSVELSKYMQTALDEDWRTNRGMEIVSVAVASISYTDDSTKLINMRNEGAMLSDPGVREGYVQGSLARGMEAAGKNEGGAMSGFMGVGMGMNANGNYFAQASQTNQQQMQEKQNQQNAQGATDTWTCPQCGTENTGKFCSNCGTPKPTNEKPKLEMKCSECSEIVDLSNGIPKFCPHCGKPFQGVPLLEHHHHHH | soluble |
| MAHHHHHHMIENLQNCKKLRLLELGYNKIRMIENIEHLTNLEELWLGKNKIEQINLPYLPKLKKLSVQHNRLTDICEKSIKNILCVEELYISYNKINHIIDTFKDLKHLKVFDLSYNEINNISICSYLKSLEELWLNNNNIDNLEMIKKLSTIENLKTLYLEKNKIQDNLKENYRKTIIHILPQLKQLDALPIPSSPTLQK | not soluble |
| GPLGSSAVTITLKTLQQQTFKIRMEPDETVKVLKEKIEAEKGRDAFPVAGQKLIYAGKILSDDVPIRDYRIDEKNFVVVMVTKTKAGQGTSAPPEASPTAAPESSTSFPPAPTSGMSHPPPAAREDKSPSEESAPTTSPESVSGSVPSSGSSGREEDAASTLVTGSEYETMLTEIMSMGYERERVVAALRASYNNPHRAVEYLLTGIPGSPEPEHGSVQESQVSEQPATEAAGENPLEFLRDQPQFQNMRQVIQQNPALLPALLQQLGQENPQLLQQISRHQEQFIQMLNEPPGELADISDVEGEVGAIGEEAPQMNYIQVTPQEKEAIERLKALGFPESLVIQAYFACEKNENLAANFLLSQNFDDE | soluble |
| IRNVGITFETRPDWAREEHVDEFLRLGGTKVEIGVQSVYDFVLSRMQRGHGVAEIVRANRVLRDSAFKVGFHMMPHLPGADSELDLRGFKKLFDDQRFRPDYLKIYPTLVTEGTPLYRMWKSGEYQALSDEEAAELVADIKAVLPKWVRLQRIQRDIPAHQIFAGVR | not soluble |
| MGLHPTLGEHGERELLALQKVDYPKGDVKAQAKHTARTLLECYNCHSLGEYNTLLNLYNITVYEVRGSVDGKEYHGIMYGALDDNGQQVGTPFKSSKFGKVFGYEALQKKFAASAEKVKKDNLPERLEHHHHHH | soluble |
| SLSGNGFDAILALSHRTSHTTYGNPFFSDVIQSISAVSEQNNFDLILQTAKTPEEELEKCAKKIQEKMIRGIIILSSTMDETLLFELDQYNIPIVVIGKVGNDYTNIYSVDTDNFQDSYDLVETLIKNGHRHIGCLHAPTEVYVSNDRLNGYRQCLFDHHLDIRNEWIIDGGFRLEDSMAAMNDLMKLRERPTAIFSTDALKSLSIYKVAEQSGKQIPDDLSIAGFSDPLLSSLFSPQLTRIDIPTNQLGIKATELLFQLIHHQYPEEKRIILSTEITLTDSI | soluble |
| MERDTVVKEVVEALKIFSRDIRTQIDEMGSQLRAEIQDTANQLRAEIQDTANQLRAEMQETANQLRAEMQETANQLRAEMQQFRAEVNERFDRLEQKFAGLRVELTETQETVHFLASKTIQHEKKLHHLAKQLESIR | not soluble |
| MSKDEIKKPVVLIYCDTIEGTNIYLKKICEGLEEEGVPFQIQQVEKVEDSVEVLAQNASRNSNLGIGIGVLKNGDCALLQRRLPPNLPIQTLRGEKYDPNLYRNIGINAARLAKNLPLVFA | not soluble |
| MGSDKIHHHHHHMSTELRRVTYGNHGVARLTPAPDKPGTYMGMPKFSKAVKGELNLSVQRKNMRNATMTIRNKRAMRVSESPDWQDLRDAAESIKNRVGRHLDHYLVEAEKNLTANGVHVHWARDGEEANRIVAQIAKDKGVDEVVKIKSITSQETDLNEYLEEQGIAAWETDLAELIVQLGHDRPSHIVVPAIHRNRAEVREIFLHEMKNYGRPAPEDISENPPELTNAARLHLREKFLRAEMAVSGGNFVLADTGSLVIVESEGNGRMCLTLPDTLVSIVGIEKVLPSFDDLEVFLKLLPRSATGERMNPYNSVWSGVTDGDGPQEQHVIFLDNGRTDVLADTLGREVLRCIRCASCINICPVYERAGGHAYGSVYPGPIGAVLNPQLRGVEHPVDRGLPYACSLCGACNEVCPVKIPFTDILLKLRNKVVKSEKADRIPQDYEVAGEMGLMKTASWAFSDHKHFEAIQVGSRGVGRVLRGKKMGPVPVPVAERWLKYRDVDAPPADTFRTWWKKNREAQR | not soluble |
| MGSSHHHHHHSSGLVPAGSHMSDFDNITTADDVFKLAAQRTGLSEIDSDSWREGLALIVDEVNTSPVFTPFGRQRVLDDATNALGRRLQVHAYIQDHPEVLDAPVERPLIVLGMPRTGTTVISYLLDQDPARRSLLHWQCVHPIPPASTETLRTDPRCLALLDEQRKILDAVTRAKMPLPHWEDADGPTEDMFIHNQDFKGLSWDSFLPTDRYARWLFDEADMSSTYEYQKRYLQVLQSTAPGSWSLKMPSHSVHIEALLKVFPDARLIWAHRDPYKATGSLCNLWRLPQSLVMNTELLDQTEMGRLAMWQMRYHVDRPLRARERIGDERFFHMYYHEMMRDPMDVMRRIYEWADEPLTAETEARMRNWLAHHPQDRFALNAYRLDEYGLTVEALQPIFAEYLDTFDIELEGRP | soluble |
| MRGSHHHHHHGSDPAPDAVAQQWAIFRAKYLRPSGRVVDTGNGGESHSEGQGYGMLFAASAGDLASFQSMWMWARTNLQHTNDKLFSWRFLKGHQPPVPDKNNATDGDLLIALALGRAGKRFQRPDYIQDAMAIYGDVLNLMTMKAGPYVVLMPGAVGFTKKDSVILNLSYYVMPSLLQAFDLTADPRWRQVMEDGIRLVSAGRFGQWRLPPDWLAVNRATGALSIASGWPPRFSYDAIRVPLYFYWAHMLAPNVLADFTRFWNNFGANALPGWVDLTTGARSPYNAPPGYLAVAECTGLDSAGELPTLDHAPDYYSAALTLLVYIARAEETIK | soluble |
| MAEGNTLISVDYEIFGKVQGVFFRKHTQAEGKKLGLVGWVQNTDRGTVQGQLQGPISKVRHMQEWLETRGSPKSHIDKANFNNEKVILKLDYSDFQIVG | soluble |
| MAHHHHHHMGTLEAQTQGPGSMKLLFVCLGNICRSPAAEAVMKKVIQNHHLTEKYICDSAGTCSYHEGQQADSRMRKVGKSRGYQVDSISRPVVSSDFKNFDYIFAMDNDNYYELLDRCPEQYKQKIFKMVDFCTTIKTTEVPDPYYGGEKGFHRVIDILEDACENLIIKLEEGKLIN | soluble |
| MSLTDRIRRLRQESFDTQPSLSIERALIETEFYKENEGKYPIPILRALNFLEICKRKTIYIGEDELIVGERGPRPKAVSTFPELTCHSVEDLHVLNTRELQRYTISQEDIDTYEREVIPYWKGRTQRERIFNHVPKEWKEAYEVGMFTEFMEQRAPGHTSLDGKVYQHGMLDLKERIAHELKNLDFMNDPEATDKQEELTAMSISCDAAIIFAERHAELAEKMAGQETDPKRKEELKKIAEICRWVPAHAPRTYWEAIQMYWFVHLGTITELNGWDAMNPGHFDQHLAPFYEKDLEEGILTRAEAKELMSCFFIKVNNQTAPPKVGITAKESGTYNDFTNLNIGGIKRDGSNGVSEVSYIMLETVDDLHLLQPGSALHISVCTPERFLREGCKVIRKGYGYPSVFNPDTYVMELMRQGKTPEDAREGGCSGCIEVGAFGKEAYILTGYLNVPKILEVTLHNGTDPVSGKKVGLVTGDPCTFRSYEALYDAFLKQIHYFVDMKVRVSNYIDRMFAKYAPATFLSLFIDDCIAKGKDYYNCGPRYNTSYIQCTGLGTITDSLSVLKKHVFEERKFNMEQIIHATDTNFEGQEAMRQFILNRTPFFGNDDEYADRIAIQIFNDLYDAIEGKPNTKGECFHLNMLSTTCHVYFGKMMNATPNGREGHHHHHH | soluble |
| MKFKRLRTSENKLYYKAMELYKISFPFHEQRKSSLQEEILKNKEYQFNLIYDKNQFVGIILCWETDDFIYVEHFCIFPEMRNNRYGQRALELLNKKGKTIILEIDLPIDEISIYRKAFYERVKYKTNNYEHIHP | not soluble |
| VIDALRNNNDYEPYNKDSNNQAFNSEEITRFFSIGKYTYPSIFSELNFIINAREAFVSIQTSTIPKTAYAAVNFVETQGEDESYTDSLSTDNKRDIYADFAVIEIPLFLTNHRDYQVFNEFIKPAIETYKQLGNSSFEKKQLDQHKNDNFYMLGYPLVESSIDALILNQRRQYNNSYTEKYTPQTLTKDQRTIDLSREVPTLIQNKTENSTGSQLLVNQSLSSTSEGIIE | not soluble |
| SLQLHFTNDALPDNVSTDFQNLNKFSEQQFVSLTDILYQFLLEPKESERFLHQLTEFAGENGMSAGPLRALMKSILLLPHGALKRNLTAEQIKLDLLSLGLNEDKASHFSDQWRVHYPVLARLAVGQTLMVNQLVDMEWKFGVTVGTSELQKTGNIFLQLKLVIRKGNMTENVYMELTLPQFYSFLHEMERAKASMDCFS | soluble |
| MSLAMALFQSAPHSLCILRLSAIGDVCNTIAAVQAIQRQWPQTRITWVTGKLEAELIQSLPDIQVIVFDKKLGWRAYTQLWQQLKSERFDALLHMQYAFRASIATLGIKARYKLGFDAARSQDFQTWFTNVKVPSPDKMHVLDGLLAFVEHLGIRDIEPKWSLTCQPDDLTWAEAQFQPEQPRLVVVPGASKAYKNWTAEGYAAVIEHAQQQGWQVILAGSPAQVERDLAAQVEQALAHPVLNLVGKSTLQQMLALLAKADLVIAPDTGPAHMANAMHTPIIGLYAHHNPERTGPYHYRHYVVSAYQEALLAETGKMPQQVDWRTRVKDPNAMQRITAQQVIAMFERAAADIMATQVNDEGHHHHHH | soluble |
| MSQVQSGILPEHCRAAIWIEANVKGEVDALRAASKTFADKLATFEAKFPDAHLGAVVAFGNNTWRALSGGVGAEELKDFPGYGKGLAPTTQFDVLIHILSLRHDVNFSVAQAAMEAFGDCIEVKEEIHGFRWVEERDLSGFVDGTENPAGEETRREVAVIKDGVDAGGSYVFVQRWEHNLKQLNRMSVHDQEMVIGRTKEANEEIDGDERPETSHLTRVDLKEDGKGLKIVRQSLPYGTASGTHGLYFCAYCARLHNIEQQLLSMFGDTDGKRDAMLRFTKPVTGGYYFAPSLDKLMAL | soluble |
| MHERHRFWQRALRLLSLGVPREASSALFGHDHSLQQETWLRSLQKEKQHIIDWHDRLTDIPFVIIDMETTGFSPEQGDEILAMAAAKTVGGVVTDAYMTLVKPEKPIPEHISALTGIEAKDVVFAPPLAEALRTFVPFIAAGVLIGYHIGHDLAFLRHALWRHYRQKWSGRFVDLQPMMTLIGHSCPTFDDALACYGICCPRRHTADGDVEAMAKLWAILLDEFRQRGIDTLHDLYAALSRC | not soluble |
| MHTSILLLTALCAGAYAQFSANGQAAILNVHNTLRSRIAKGTYVAKGTAKPAASDMLKMKWDATVAASAQAYANKCPTGHSGAAGLGENLYWYWTSATITNIDQFGATGSAAWEKEFQDYGWSSNTLSMSLFNTGIGHATQMAWAKTNLIGCGVKNCGKDTNGFNKVTVVCQYKPQGNYLNQNIYTSGTTCSKCPSGTSCEAATGLCA | not soluble |
| TAELKICRVNRNSGSCLGGDEIFLLCDKVQKEDIEVYFTGPGWEARGSFSQADVHRQVAIVFRTPPYADPSLQAPVRVSMQLRRPSDRELSEPMEFQYLPDTDDRHRIEEKRKRTYETFKSIMKKSPFNGPTEPRP | soluble |
| MSSVVNAAYAEYNGKEKGDQEDPRVLIPQLCRLFYELGWVTGTGGGISLRHGEHIYIAPSGVQKERIQPEDLFVCDIDEKDISCPPPQKKLKKSQCTPPFMNAYTMRGAQAVIHTHSKSAVMATLLFPGKEFRITHQEMIKGIRKGNSGTNFRYDDTLVVPIIENTPEEKDLKERMARAMDMYPDSCAVLVRRHGVYVWGETWEKAKTMCECYDYLFDIAVQMKQSGLDPSAFPTEEKGIV | not soluble |
